Measurements: the supplement of paper PMC9170038

Tested on: K4 kissing-loop RNA reporter
Test: apparent KD of K4 kissing-loop reporter; higher = weaker reporter binding
Details: Eterna round: R107
Protocol: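 RNA-MaP round R107: designed RNA switches with theophylline, tryptophan, arginine or FMN aptamers are transcribed on-chip within common flanks. They are titrated with a labelled K4 kissing-loop RNA reporter in RNA-MaP buffer (100 mM Tris pH 7.5, 80 mM KCl, 4 mM MgCl2), without ligand or with the indicated ligand. Median apparent KD per design.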

[1] = input ligand: theophylline 20 uM
[2] = input ligand: tryptophan 2.4 mM
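Note: bound reporter read as fluorescence of individual clusters on recovered sequencing chips by microscopy, with normalized cluster intensities fitted with a binding model.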

Sequence	apparent KD of K4 kissing-loop reporter (input ligand: FMN 200 uM)	apparent KD of K4 kissing-loop reporter (input ligand: arginine 13.2 mM)	apparent KD of K4 kissing-loop reporter (input ligand: none)	apparent KD of K4 kissing-loop reporter [1]	apparent KD of K4 kissing-loop reporter [2]
UUUAAAUAUAGUGAUGUUAUAUAACAAUGACGAGGACCGGUACGGCCGCCACUCGAGAGAGAUAAUGGUCAUACAAAUGUAUGUU [AstrosSSTryA#10]	0.672 µM	0.677 µM	0.738 µM	0.789 µM	0.529 µM
CGUGAGGACCUGAGGUGAUGUAUAGUAUCGCGAGGACCGGUACGGCCGCCACUCGUGAAGAGAAAGGAGUGAUGUUCCGUAAGGG	0.474 µM	0.47 µM	0.471 µM	0.677 µM	0.138 µM
AGCAAUAUCACGGCCGCCACUGAUUAUUGUUUUUAUAGUUAUAAAUCUUGCCAGUGAUGUUGGUUCAGGACCGGGUGAGUUAAUA [JR_SSTryptoB_Sub002]	0.498 µM	0.565 µM	0.727 µM	0.62 µM	0.373 µM
AGUGAUAUAUGAGGAUAUGGGUUUGUUAAAGAGUUAGUUUUAGUGUUGUUUGGUUAGUGAUGUUAUUUAGAAGGCGUGAGUGAUG [foopmullin]	0.0972 µM	0.0825 µM	0.076 µM	0.115 µM	0.0729 µM
GCCGUACGCAUGGAUACCAGUCUUAGAGUGAUGUUCUAAACGAUUGCGCCUGGAUCAAUGGACCCUUGGCAGCCAUGCGUACGGC	0.13 µM	0.119 µM	0.129 µM	0.0924 µM	0.154 µM
AGAGAUAUAUGAGGAUAUGGGAUAGUUAAUGAGUUAGUUUUAGUGUUGUUUGGUUAGUGAUGUUAUUUAGAAGGCGUGAGUGAUG [rxxvgmullin]	0.106 µM	0.0758 µM	0.0817 µM	0.109 µM	0.0711 µM
AGUAGUCGACAAGGAUAUACUAGGAGAGACGUUUGCACAUAACCUGCCCUACGAAGUGAUGUUUCGGUAGAAGGUGUUGGGCUGU [theeternabot_exclusion_KL_FMN_B_34]	0.0965 µM	0.067 µM	0.0876 µM	0.0829 µM	0.0715 µM
CCCAAAAUAUGCAGUGAUGUUGCAACCGAUACCAGUAUCGAAAGAUACCCUUGGCAGCGGAAAACCGCAACGUAAUUUAAAAGGG [Ex Theophylline A K4 16]	0.204 µM	0.177 µM	0.147 µM	0.212 µM	0.147 µM
UCGAAAUGCGUCUCCUAGUUUCUCCGGGAAGGAGCGUGGAUAACCGCAGGUAGGUCGCCCGGGAGCCGGACCAGUGAUGUUGGUC [Exclusion Arginine A Gf 30]	0.181 µM	0.211 µM	0.197 µM	0.207 µM	0.164 µM
CUCACAGUGAUGUUGUGGGCCGAGAGUGAUACCAGCCGUAUUUGUGGCCCUUGGCAGCGCAGAACCAGUGAUGUUGGUUACUUGG [Same State Theophylline A GF 23]	0.229 µM	0.286 µM	0.271 µM	0.277 µM	0.238 µM
AUUAUAUAAUGGAGUGAUGUUCCAUCAGAUACCAGUGAAUUUGAACACCCUUGGCAGCUGUUGUUCAAAUAAUUUAAAUCCUUUA [JR_SSTheophyA_Sub019]	0.129 µM	0.15 µM	0.132 µM	0.166 µM	0.103 µM
GGCCGGCCGGGAAGGAGCGGGAGUGAUGUUUUCGCAAAGAAAGAUAUAAAAGAAACGAAAUCCCAGGUAGGUCGCCCGGCCGGUU	0.0644 µM	0.113 µM	0.0913 µM	0.16 µM	0.0664 µM
CGUGAGUGAUGUUCACGAGGCUUGUUUCUAGAGGAUAUUCACUUUAGAAGAAGGCUAGAGAUCUAUAUCGUGAUGCUCGAUAACG [FMN A Ex t1]	0.295 µM	0.247 µM	0.197 µM	0.26 µM	0.155 µM
GGCAGUGAUGUUGCCUAAGCAAUGCAUGCGGAGGAUAUUCGUUUGGGAAGAAGGCCGCAGCGUUCUCUCGAGUGAUGUUCGAGUA [Same State FMN A GF 20]	0.155 µM	0.141 µM	0.153 µM	0.158 µM	0.126 µM
AUUUAAUUAACUGAUACCAGACUUUUUGUUUUGUUUAUUACUAGUGAUGUUAGUGUUUCUGUCCCUUGGCAGCAGUAUCUACUUA [JR_ExcTheophyB_Sub015]	0.134 µM	0.202 µM	0.131 µM	0.239 µM	0.122 µM
